{
  "source": "paper PMC13220886",
  "about": "(Science Advances, 2026)",
  "data": [
    {"biological_target": "T1, sfCHT (Salimicrobium flavidum, UniProt A0A1N7IZC0)", "T1 construct": "gene SAMN05421687_10333; full length, C-terminal 3C-His10 tag (cut by 3C for cryo-EM), E. coli BL21; monomer in DDM or E. coli polar lipid proteoliposomes; residues 22-69 and 81-543 built", "T1 sequence (A0A1N7IZC0 entry or part of it)": "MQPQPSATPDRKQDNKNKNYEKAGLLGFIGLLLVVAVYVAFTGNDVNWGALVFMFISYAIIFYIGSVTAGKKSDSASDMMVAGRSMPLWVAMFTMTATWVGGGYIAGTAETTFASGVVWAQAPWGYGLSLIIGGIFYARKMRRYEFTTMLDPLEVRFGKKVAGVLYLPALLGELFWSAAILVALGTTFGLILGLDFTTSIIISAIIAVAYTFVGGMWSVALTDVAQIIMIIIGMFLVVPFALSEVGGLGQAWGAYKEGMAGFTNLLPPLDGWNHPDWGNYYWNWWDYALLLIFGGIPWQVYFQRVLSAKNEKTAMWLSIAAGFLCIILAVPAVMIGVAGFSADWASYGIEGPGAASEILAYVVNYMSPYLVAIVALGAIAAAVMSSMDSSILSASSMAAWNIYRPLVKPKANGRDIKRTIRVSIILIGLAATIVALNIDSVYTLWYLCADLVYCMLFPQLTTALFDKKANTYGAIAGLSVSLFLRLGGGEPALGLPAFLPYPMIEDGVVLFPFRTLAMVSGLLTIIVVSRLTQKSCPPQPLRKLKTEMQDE", "test": "inhibition of [3H]-choline uptake into proteoliposomes", "format": "biochemical", "conditions": "1 μM HC-3, 1 μM choline, 137 mM NaCl, pH 7.4, room temperature", "values": [
      {"molecule": "C[N+]1(C)CCOC(O)(c2ccc(-c3ccc(C4(O)C[N+](C)(C)CCO4)cc3)cc2)C1", "note": "(stereo not drawn) [HC-3]", "uptake at 1 μM HC-3": "selectively suppressed Na^+-dependent uptake but had no effect in Na^+-free conditions"}
    ]},
    {"substrate": "C[N+](C)(C)CCO", "test": "[3H]-choline uptake, saturation kinetics in transfected HeLa cells", "format": "cell-based, Homo sapiens", "conditions": "pH 7.4, 137 mM NaCl, room temperature, 2 min, LV/AA background, labelled compound", "text": "[3H]-choline uptake, saturation kinetics in transfected HeLa cells on CHT1 (endocytosis-resistant CHT1-LV/AA, called WT CHT1)", "units": {"Km": "µM", "Vmax": "µmol/min/mg"}, "values": [
      {"molecule": "CHT1 (endocytosis-resistant CHT1-LV/AA, called WT CHT1) (Homo sapiens; L531A/S263A/V532A) (protein, full length; transient transfection, HeLa cells) MAFHVEGLIAIIVFYLLILLVGIWAAWRTKNSGSAEERSEAIIVGGRDIGLLVGGFTMTATWVGGGYINGTAEAVYVPGYGLAWAQAPIGYSLSLILGGLFFAKPMRSKGYVTMLDPFQQIYGKRMGGLLFIPALMGEMFWAAAIFSALGATISVIIDVDMHISVIISALIATLYTLVGGLYSVAYTDVVQLFCIFVGLWISVPFALSHPAVADIGFTAVHAKYQKPWLGTVDSSEVYSWLDSFLLLMLGGIPWQAYFQRVLASSSATYAQVLSFLAAFGCLVMAIPAILIGAIGASTDWNQTAYGLPDPKTTEEADMILPIVLQYLCPVYISFFGLGAVSAAVMSSADSSILSASSMFARNIYQLSFRQNASDKEIVWVMRITVFVFGASATAMALLTKTVYGLWYLSSDLVYIVIFPQLLCVLFVKGTNTYGAVAGYVSGLFLRITGGEPYLYLQPLIFYPGYYPDDNGIYNQKFPFKTLAMVTSFLTNICISYLAKYLFESGTLPPKLDVFDAVVARHSEENMDKTIAAKNENIKLDELALVKPRQSMTLSSTFTNKEAFLDVDSSPEGSGTEDNLQ", "Km": "14.60 ± 2.03", "Vmax": 0.000659},
      {"molecule": "CHT1 (endocytosis-resistant CHT1-LV/AA, called WT CHT1) (Homo sapiens; L531A/V532A) (protein, full length; transient transfection, HeLa cells) MAFHVEGLIAIIVFYLLILLVGIWAAWRTKNSGSAEERSEAIIVGGRDIGLLVGGFTMTATWVGGGYINGTAEAVYVPGYGLAWAQAPIGYSLSLILGGLFFAKPMRSKGYVTMLDPFQQIYGKRMGGLLFIPALMGEMFWAAAIFSALGATISVIIDVDMHISVIISALIATLYTLVGGLYSVAYTDVVQLFCIFVGLWISVPFALSHPAVADIGFTAVHAKYQKPWLGTVDSSEVYSWLDSFLLLMLGGIPWQAYFQRVLSSSSATYAQVLSFLAAFGCLVMAIPAILIGAIGASTDWNQTAYGLPDPKTTEEADMILPIVLQYLCPVYISFFGLGAVSAAVMSSADSSILSASSMFARNIYQLSFRQNASDKEIVWVMRITVFVFGASATAMALLTKTVYGLWYLSSDLVYIVIFPQLLCVLFVKGTNTYGAVAGYVSGLFLRITGGEPYLYLQPLIFYPGYYPDDNGIYNQKFPFKTLAMVTSFLTNICISYLAKYLFESGTLPPKLDVFDAVVARHSEENMDKTIAAKNENIKLDELALVKPRQSMTLSSTFTNKEAFLDVDSSPEGSGTEDNLQ", "Km": "12.17 ± 1.06", "Vmax": 0.00118},
      {"molecule": "CHT1 (endocytosis-resistant CHT1-LV/AA, called WT CHT1) (Homo sapiens; L531A/V532A/W62F) (protein, full length; transient transfection, HeLa cells) MAFHVEGLIAIIVFYLLILLVGIWAAWRTKNSGSAEERSEAIIVGGRDIGLLVGGFTMTATFVGGGYINGTAEAVYVPGYGLAWAQAPIGYSLSLILGGLFFAKPMRSKGYVTMLDPFQQIYGKRMGGLLFIPALMGEMFWAAAIFSALGATISVIIDVDMHISVIISALIATLYTLVGGLYSVAYTDVVQLFCIFVGLWISVPFALSHPAVADIGFTAVHAKYQKPWLGTVDSSEVYSWLDSFLLLMLGGIPWQAYFQRVLSSSSATYAQVLSFLAAFGCLVMAIPAILIGAIGASTDWNQTAYGLPDPKTTEEADMILPIVLQYLCPVYISFFGLGAVSAAVMSSADSSILSASSMFARNIYQLSFRQNASDKEIVWVMRITVFVFGASATAMALLTKTVYGLWYLSSDLVYIVIFPQLLCVLFVKGTNTYGAVAGYVSGLFLRITGGEPYLYLQPLIFYPGYYPDDNGIYNQKFPFKTLAMVTSFLTNICISYLAKYLFESGTLPPKLDVFDAVVARHSEENMDKTIAAKNENIKLDELALVKPRQSMTLSSTFTNKEAFLDVDSSPEGSGTEDNLQ", "Km": "401.72 ± 32.24", "Vmax": 0.000627},
      {"molecule": "CHT1 (endocytosis-resistant CHT1-LV/AA, called WT CHT1) (Homo sapiens; L531A/V532A/Y91F) (protein, full length; transient transfection, HeLa cells) MAFHVEGLIAIIVFYLLILLVGIWAAWRTKNSGSAEERSEAIIVGGRDIGLLVGGFTMTATWVGGGYINGTAEAVYVPGYGLAWAQAPIGFSLSLILGGLFFAKPMRSKGYVTMLDPFQQIYGKRMGGLLFIPALMGEMFWAAAIFSALGATISVIIDVDMHISVIISALIATLYTLVGGLYSVAYTDVVQLFCIFVGLWISVPFALSHPAVADIGFTAVHAKYQKPWLGTVDSSEVYSWLDSFLLLMLGGIPWQAYFQRVLSSSSATYAQVLSFLAAFGCLVMAIPAILIGAIGASTDWNQTAYGLPDPKTTEEADMILPIVLQYLCPVYISFFGLGAVSAAVMSSADSSILSASSMFARNIYQLSFRQNASDKEIVWVMRITVFVFGASATAMALLTKTVYGLWYLSSDLVYIVIFPQLLCVLFVKGTNTYGAVAGYVSGLFLRITGGEPYLYLQPLIFYPGYYPDDNGIYNQKFPFKTLAMVTSFLTNICISYLAKYLFESGTLPPKLDVFDAVVARHSEENMDKTIAAKNENIKLDELALVKPRQSMTLSSTFTNKEAFLDVDSSPEGSGTEDNLQ", "Km": "22.23 ± 1.91", "Vmax": 0.000353},
      {"molecule": "CHT1 (endocytosis-resistant CHT1-LV/AA, called WT CHT1) (Homo sapiens; L531A/V532A/W141F) (protein, full length; transient transfection, HeLa cells) MAFHVEGLIAIIVFYLLILLVGIWAAWRTKNSGSAEERSEAIIVGGRDIGLLVGGFTMTATWVGGGYINGTAEAVYVPGYGLAWAQAPIGYSLSLILGGLFFAKPMRSKGYVTMLDPFQQIYGKRMGGLLFIPALMGEMFFAAAIFSALGATISVIIDVDMHISVIISALIATLYTLVGGLYSVAYTDVVQLFCIFVGLWISVPFALSHPAVADIGFTAVHAKYQKPWLGTVDSSEVYSWLDSFLLLMLGGIPWQAYFQRVLSSSSATYAQVLSFLAAFGCLVMAIPAILIGAIGASTDWNQTAYGLPDPKTTEEADMILPIVLQYLCPVYISFFGLGAVSAAVMSSADSSILSASSMFARNIYQLSFRQNASDKEIVWVMRITVFVFGASATAMALLTKTVYGLWYLSSDLVYIVIFPQLLCVLFVKGTNTYGAVAGYVSGLFLRITGGEPYLYLQPLIFYPGYYPDDNGIYNQKFPFKTLAMVTSFLTNICISYLAKYLFESGTLPPKLDVFDAVVARHSEENMDKTIAAKNENIKLDELALVKPRQSMTLSSTFTNKEAFLDVDSSPEGSGTEDNLQ", "Km": "270.81 ± 14.66", "Vmax": 0.000588},
      {"molecule": "CHT1 (endocytosis-resistant CHT1-LV/AA, called WT CHT1) (Homo sapiens; L531A/V532A/W406F) (protein, full length; transient transfection, HeLa cells) MAFHVEGLIAIIVFYLLILLVGIWAAWRTKNSGSAEERSEAIIVGGRDIGLLVGGFTMTATWVGGGYINGTAEAVYVPGYGLAWAQAPIGYSLSLILGGLFFAKPMRSKGYVTMLDPFQQIYGKRMGGLLFIPALMGEMFWAAAIFSALGATISVIIDVDMHISVIISALIATLYTLVGGLYSVAYTDVVQLFCIFVGLWISVPFALSHPAVADIGFTAVHAKYQKPWLGTVDSSEVYSWLDSFLLLMLGGIPWQAYFQRVLSSSSATYAQVLSFLAAFGCLVMAIPAILIGAIGASTDWNQTAYGLPDPKTTEEADMILPIVLQYLCPVYISFFGLGAVSAAVMSSADSSILSASSMFARNIYQLSFRQNASDKEIVWVMRITVFVFGASATAMALLTKTVYGLFYLSSDLVYIVIFPQLLCVLFVKGTNTYGAVAGYVSGLFLRITGGEPYLYLQPLIFYPGYYPDDNGIYNQKFPFKTLAMVTSFLTNICISYLAKYLFESGTLPPKLDVFDAVVARHSEENMDKTIAAKNENIKLDELALVKPRQSMTLSSTFTNKEAFLDVDSSPEGSGTEDNLQ", "Km": "357.60 ± 99.13", "Vmax": 0.000543},
      {"molecule": "CHT1 (endocytosis-resistant CHT1-LV/AA, called WT CHT1) (Homo sapiens; L531A/Q259A/V532A) (protein, full length; transient transfection, HeLa cells) MAFHVEGLIAIIVFYLLILLVGIWAAWRTKNSGSAEERSEAIIVGGRDIGLLVGGFTMTATWVGGGYINGTAEAVYVPGYGLAWAQAPIGYSLSLILGGLFFAKPMRSKGYVTMLDPFQQIYGKRMGGLLFIPALMGEMFWAAAIFSALGATISVIIDVDMHISVIISALIATLYTLVGGLYSVAYTDVVQLFCIFVGLWISVPFALSHPAVADIGFTAVHAKYQKPWLGTVDSSEVYSWLDSFLLLMLGGIPWQAYFARVLSSSSATYAQVLSFLAAFGCLVMAIPAILIGAIGASTDWNQTAYGLPDPKTTEEADMILPIVLQYLCPVYISFFGLGAVSAAVMSSADSSILSASSMFARNIYQLSFRQNASDKEIVWVMRITVFVFGASATAMALLTKTVYGLWYLSSDLVYIVIFPQLLCVLFVKGTNTYGAVAGYVSGLFLRITGGEPYLYLQPLIFYPGYYPDDNGIYNQKFPFKTLAMVTSFLTNICISYLAKYLFESGTLPPKLDVFDAVVARHSEENMDKTIAAKNENIKLDELALVKPRQSMTLSSTFTNKEAFLDVDSSPEGSGTEDNLQ", "Km": "10.08 ± 1.50", "Vmax": 0.000387}
    ]}
  ]
}
